Our source for the STAT3 phosphorylation in mouse splenocytes (Western blot), concentration giving equal signal values is patent US20130316404A1.

The target of the assay is IL-10 receptor (IL-10R) on mouse splenocytes (mouse) (UniProt Q61727). As to the kind of experiment: cell-based or functional assay.
Chain of UniProt Q61727 (Q61727 17-575): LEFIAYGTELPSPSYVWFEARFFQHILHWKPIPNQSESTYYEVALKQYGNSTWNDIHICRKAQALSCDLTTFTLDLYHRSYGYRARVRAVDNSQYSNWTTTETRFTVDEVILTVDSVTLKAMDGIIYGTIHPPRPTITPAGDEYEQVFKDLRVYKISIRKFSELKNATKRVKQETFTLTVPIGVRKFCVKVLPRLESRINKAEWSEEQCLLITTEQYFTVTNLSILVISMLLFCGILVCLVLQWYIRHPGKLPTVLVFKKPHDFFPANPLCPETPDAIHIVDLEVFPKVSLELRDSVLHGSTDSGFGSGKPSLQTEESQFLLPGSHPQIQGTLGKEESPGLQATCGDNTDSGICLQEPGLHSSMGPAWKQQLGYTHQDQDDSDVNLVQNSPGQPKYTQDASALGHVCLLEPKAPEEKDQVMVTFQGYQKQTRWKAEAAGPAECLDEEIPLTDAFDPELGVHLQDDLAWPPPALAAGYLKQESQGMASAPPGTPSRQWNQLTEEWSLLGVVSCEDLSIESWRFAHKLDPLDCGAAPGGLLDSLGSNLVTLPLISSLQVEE

Take “recombinant wildtype mouse IL-10 expressed in human HEK293 cells (from UniProt P18893 19-178) (ligand)”: the STAT3 phosphorylation in mouse splenocytes (Western blot), concentration giving equal signal came out at 100 ng/mL.
As for “stabilized recombinant IL-10 dimer (two wildtype murine IL-10 monomers joined C-terminus to N-terminus by a 7 amino acid peptide linker, one continuous polypeptide) (from UniProt P18893 19-178) (ligand)”, the figure is 10 ng/mL.
